Data as given in patent US20150359843A1 (AGENCY FOR SCIENCE TECHNOLOGY AND RESEARCH, published 2015).
No end group written: not given here.

Molecular target: T1, p53 wt-FL (human, UniProt P04637 1-393)
T1 construct: mature; Full-length protein made by in vitro transcription/translation, used unpurified in the IVT mixture; also called wild-type full length p53; IVT synthesized p53 wt-FL
Test: ELISA conformation 1: biotinylated peptide on streptavidin plate, IVT p53 wt-FL added, detected with DO-1, Bp53 10.1 or CM1 and HRP secondary; ctrl = no p53 extract

T1 sequence (P04637 whole entry): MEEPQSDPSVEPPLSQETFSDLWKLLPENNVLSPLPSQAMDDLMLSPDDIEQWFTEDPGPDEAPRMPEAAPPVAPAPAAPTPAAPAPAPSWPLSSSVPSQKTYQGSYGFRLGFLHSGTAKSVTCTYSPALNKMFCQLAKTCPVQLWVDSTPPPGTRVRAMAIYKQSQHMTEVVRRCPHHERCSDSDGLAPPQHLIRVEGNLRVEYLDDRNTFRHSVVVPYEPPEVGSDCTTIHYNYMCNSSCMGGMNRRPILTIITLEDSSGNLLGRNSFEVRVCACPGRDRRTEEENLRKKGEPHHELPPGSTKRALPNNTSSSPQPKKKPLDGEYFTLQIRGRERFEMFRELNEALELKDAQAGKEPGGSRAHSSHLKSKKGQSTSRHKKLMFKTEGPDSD

binding result | Binder
no binding | MPHLMAC (also: biotin at N- or C-terminus in ELISA forms, also called peptide MPH) [Pap-MPH]
no binding | SPTTNH (also: biotin at N- or C-terminus in ELISA forms only, also called peptide SPT; Peptide-P1) [Pap-SPT]
